Results reported in PMC12610408, “An Unbiased Cell‐Culture Selection Yields DNA Aptamers as Novel Senescent Cell‐Specific Reagents”.

Target: fibronectin (native, purified from mouse plasma) (mouse, UniProt P11276 33-2477)
Experiment: BLI; BLI: streptavidin biosensors, biotinylated aptamer (500 nM) immobilized, fibronectin analyte, 1x Octet Kinetics Buffer, 30 C, 1:1 fit; pull-down: streptavidin Dynabeads M-270, beads washed in PBS + 5 mM MgCl2
Details: protein: native; chain copies: 2; label: 5' 6-FAM; 3' BioTEG

Chain of fibronectin (native, purified from mouse plasma) (P11276 33-2477): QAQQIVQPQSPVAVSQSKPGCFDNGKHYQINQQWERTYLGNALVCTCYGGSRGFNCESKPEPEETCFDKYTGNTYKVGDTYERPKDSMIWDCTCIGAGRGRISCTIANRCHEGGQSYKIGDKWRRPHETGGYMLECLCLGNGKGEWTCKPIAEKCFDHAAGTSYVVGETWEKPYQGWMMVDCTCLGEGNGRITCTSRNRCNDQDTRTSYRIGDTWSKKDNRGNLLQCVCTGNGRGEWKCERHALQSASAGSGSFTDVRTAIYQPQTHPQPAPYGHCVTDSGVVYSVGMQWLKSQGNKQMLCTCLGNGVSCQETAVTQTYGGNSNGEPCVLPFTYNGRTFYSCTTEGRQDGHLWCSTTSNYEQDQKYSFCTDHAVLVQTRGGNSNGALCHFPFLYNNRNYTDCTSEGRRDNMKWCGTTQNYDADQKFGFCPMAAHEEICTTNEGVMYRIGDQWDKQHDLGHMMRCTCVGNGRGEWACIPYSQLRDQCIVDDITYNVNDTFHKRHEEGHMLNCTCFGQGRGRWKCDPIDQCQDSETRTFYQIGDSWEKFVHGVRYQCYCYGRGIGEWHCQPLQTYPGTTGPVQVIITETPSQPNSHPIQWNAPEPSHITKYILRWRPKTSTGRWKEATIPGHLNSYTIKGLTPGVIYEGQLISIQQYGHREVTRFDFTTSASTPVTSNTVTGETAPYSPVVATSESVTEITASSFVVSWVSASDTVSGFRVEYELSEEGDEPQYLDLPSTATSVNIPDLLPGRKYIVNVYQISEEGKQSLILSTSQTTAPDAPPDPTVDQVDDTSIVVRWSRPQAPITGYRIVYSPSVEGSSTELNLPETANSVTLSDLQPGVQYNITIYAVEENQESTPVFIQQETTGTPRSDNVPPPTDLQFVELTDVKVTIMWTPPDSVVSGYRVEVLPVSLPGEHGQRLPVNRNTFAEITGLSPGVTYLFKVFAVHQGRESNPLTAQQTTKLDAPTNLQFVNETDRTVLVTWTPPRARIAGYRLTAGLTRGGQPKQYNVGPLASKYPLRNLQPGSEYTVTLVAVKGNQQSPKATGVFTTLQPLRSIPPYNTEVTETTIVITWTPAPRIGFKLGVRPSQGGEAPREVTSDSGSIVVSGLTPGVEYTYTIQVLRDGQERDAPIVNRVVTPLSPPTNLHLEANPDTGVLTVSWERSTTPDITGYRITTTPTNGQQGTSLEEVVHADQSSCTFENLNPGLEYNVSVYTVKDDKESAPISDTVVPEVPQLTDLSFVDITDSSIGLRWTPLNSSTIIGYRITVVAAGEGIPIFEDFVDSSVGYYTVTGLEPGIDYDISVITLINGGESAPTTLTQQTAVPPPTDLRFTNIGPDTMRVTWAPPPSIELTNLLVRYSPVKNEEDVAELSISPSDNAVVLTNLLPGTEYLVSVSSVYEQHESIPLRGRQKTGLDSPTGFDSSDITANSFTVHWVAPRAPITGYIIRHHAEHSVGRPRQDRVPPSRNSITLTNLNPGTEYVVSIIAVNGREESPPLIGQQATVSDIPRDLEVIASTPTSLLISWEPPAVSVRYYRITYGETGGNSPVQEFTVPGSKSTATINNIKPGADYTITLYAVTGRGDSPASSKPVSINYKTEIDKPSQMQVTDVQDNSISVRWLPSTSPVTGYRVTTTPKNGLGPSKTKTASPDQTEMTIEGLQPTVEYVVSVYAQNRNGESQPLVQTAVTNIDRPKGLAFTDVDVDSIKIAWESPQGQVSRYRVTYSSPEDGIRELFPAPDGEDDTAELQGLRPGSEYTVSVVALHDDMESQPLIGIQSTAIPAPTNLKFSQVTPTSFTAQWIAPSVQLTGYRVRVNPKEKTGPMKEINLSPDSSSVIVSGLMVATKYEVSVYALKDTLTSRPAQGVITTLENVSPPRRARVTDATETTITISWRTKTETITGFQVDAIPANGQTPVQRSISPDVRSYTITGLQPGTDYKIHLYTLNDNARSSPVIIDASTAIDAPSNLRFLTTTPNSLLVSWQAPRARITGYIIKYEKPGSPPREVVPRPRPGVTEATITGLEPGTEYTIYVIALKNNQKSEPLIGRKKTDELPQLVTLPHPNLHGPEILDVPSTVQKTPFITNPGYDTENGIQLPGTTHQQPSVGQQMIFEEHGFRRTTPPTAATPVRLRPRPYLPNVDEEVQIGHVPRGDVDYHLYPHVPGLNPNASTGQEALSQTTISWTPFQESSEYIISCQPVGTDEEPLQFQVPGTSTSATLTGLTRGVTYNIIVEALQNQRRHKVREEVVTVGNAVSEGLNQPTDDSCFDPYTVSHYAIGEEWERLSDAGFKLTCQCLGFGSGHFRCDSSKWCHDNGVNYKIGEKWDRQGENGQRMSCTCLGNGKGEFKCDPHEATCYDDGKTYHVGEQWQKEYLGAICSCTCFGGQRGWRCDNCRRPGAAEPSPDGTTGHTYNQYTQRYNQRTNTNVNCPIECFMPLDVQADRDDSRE

B1: aptamer 6756 (ssDNA)
DNA: TGCGTATTGACACATGCGTGAAACGGACTTTTATTAGACAAATAATGCATGTCTCGAATTCAGGCATAGGTATGGGCTTT
Kd: 0.921 nM

B2: negative control oligonucleotide 6766 (ssDNA)
DNA: TGCGTATTGACACATGCGTGCTTGTTATATAACGTGTCATAGCGTCCAAAAAGAAGTACACAGGCATAGGTATGGGCTTT
binding result: no binding

B3: aptamer 6762 (ssDNA)
DNA: TGCGTATTGACACATGCGTGGCTTAATGCAATCCATCTGTTGCATTTTTCTAAACGTCGCCAGGCATAGGTATGGGCTTT
Kd: 0.579 nM
